Source: paper PMC7842262

Tested on: HIV-1 Rev (HIV-1)
Test: EMSA
Conditions: scale: fold more Rev than RRE for 50% unbound RNA

Substance: 433-mer RcRE (K-RRE)
- binding signal: 8
